Earlier results in paper PMC4451881.

Target: CK2beta (Homo sapiens) (UniProt P67870)
Sequence (P67870 2-215): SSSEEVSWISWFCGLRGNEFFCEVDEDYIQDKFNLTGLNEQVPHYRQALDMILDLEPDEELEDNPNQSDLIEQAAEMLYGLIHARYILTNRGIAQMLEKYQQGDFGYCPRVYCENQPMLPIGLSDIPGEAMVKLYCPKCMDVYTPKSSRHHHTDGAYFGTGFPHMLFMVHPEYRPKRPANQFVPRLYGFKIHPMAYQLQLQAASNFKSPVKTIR

CK2alpha, sequence (P68400 whole entry): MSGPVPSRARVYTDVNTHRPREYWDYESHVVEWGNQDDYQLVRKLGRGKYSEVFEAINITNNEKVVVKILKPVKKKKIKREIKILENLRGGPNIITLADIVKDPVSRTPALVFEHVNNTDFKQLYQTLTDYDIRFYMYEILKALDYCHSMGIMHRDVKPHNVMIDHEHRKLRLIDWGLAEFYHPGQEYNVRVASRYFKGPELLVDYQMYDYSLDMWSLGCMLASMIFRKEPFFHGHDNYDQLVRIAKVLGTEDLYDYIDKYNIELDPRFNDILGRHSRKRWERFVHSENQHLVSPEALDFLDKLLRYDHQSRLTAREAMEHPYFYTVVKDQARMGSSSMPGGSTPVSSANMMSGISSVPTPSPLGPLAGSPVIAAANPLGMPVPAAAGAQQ

CK2alpha (from UniProt P68400)
Kd: 4 nM
